Laboratory results as given in paper PMC7078208, “Interaction of SHP-2 SH2 domains with PD-1 ITSM induces PD-1 dimerization and SHP-2 activation” (Communications Biology, 2020).
pKd: −log10 of the molar value. Blank lines part the entries; values can stand above or below the compound they belong to. Square brackets hold non-standard residues; d marks the D form. Ends that are not written are not given here. pY = N[C@@H](Cc1ccc(OP(=O)(O)O)cc1)C(=O)O

What was measured:
[1] = molecular target: T1, t-SHP-2 (SHP-2 tandem SH2 domains, amino acids 1-225) (Homo sapiens, UniProt Q06124); assay: Isothermal titration calorimetry of PD-1 phosphopeptides with t-SHP-2; format: binding; conditions: for pKd: ITC, MicroCal ITC200, peptide 50-100 µM titrated into t-SHP-2 3-5 µM, 19 injections, 20 °C, 50 mM HEPES pH 7.4, 100 mM NaCl, 5 mM TCEP
T1 construct: made in house
T1 sequence (Q06124 1-225): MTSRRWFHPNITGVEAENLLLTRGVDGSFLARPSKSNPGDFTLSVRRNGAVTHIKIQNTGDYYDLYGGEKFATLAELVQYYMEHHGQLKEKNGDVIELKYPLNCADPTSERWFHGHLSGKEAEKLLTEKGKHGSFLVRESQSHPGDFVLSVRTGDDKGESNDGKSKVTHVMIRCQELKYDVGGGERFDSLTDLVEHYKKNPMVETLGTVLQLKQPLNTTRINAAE
Experimental: Isothermal titration calorimetry (ITC) was performed on a MicroCal ITC200 instrument (Malvern, Worcestershire, UK), using established methodology. Briefly, PD-1 phosphopeptides (PD-1cyto-pITIM-pITSM, PD-1cyto-ITIM-pITSM and PD-1cyto-pITIM-ITSM) and SHP-2 tandem-SH2 protein (t-SHP-2) were prepared in buffer containing 50 mM HEPES pH 7.4, 100 mM NaCl, 5 mM TCEP. Each peptide (50–100 µM) was titrated into a t-SHP-2 sample (3–5 µM) in a total of 19 injections at 20^ oC. We used reference power 6.0, initial delay 60 s and stirring speed 750 rpm. Injection volume was 0.4 µl for first injection and 2 µl for subsequent injections, injection duration was 0.8 s for first injection and 4 s for subsequent injections, with 150 s spacing and 5 s filter period. Reference cell was filled with sterile Milli-Q water. Controls of peptide titrations into buffer were run for baseline corrections. Data analysis was done using Origin 7.0 software.

[2] = test system: PD-1-SmBiT: PD-1-LgBiT complex (PD-1: PD-1 interaction) in HEK-293 cells; assay: NanoBiT assay for PD-1 dimerization in HEK-293 cells; format: cell-based, human; conditions: HEK-293 transfected with PD-1-SmBiT, active Fyn and SHP-2, increasing amounts, Fig. 4e
[3] = molecular target: SHP-2 wild-type full-length, purified recombinant protein (UniProt Q06124)
[4] = molecular target: t-SHP-2 (SHP-2 amino acids 1-225, tandem N-SH2 and C-SH2 domains) (UniProt Q06124); assay: ITC; MicroCal ITC200; peptide (50-100 uM) titrated into t-SHP-2 (3-5 uM), 19 injections, 20 C; 50 mM HEPES pH 7.4, 100 mM NaCl, 5 mM TCEP
[5] = test system: SHP-2-WT; assay: SHP-2 phosphatase activity, DiFMUP substrate; format: biochemical
[6] = molecular target: T2, SHP-2-full-length (Homo sapiens, UniProt Q06124); assay: SPR: SHP-2-full-length binding to immobilized PD-1 phosphopeptides; conditions: identical conditions as for ITSM-pY248 surface
T2 construct: glutathione-S-transferase (GST) fusions to SHP-2 wild-type full-length (SHP-2-WT-FL) using the pGEX 4T-3 vector; GST (N, cleaved yes); made in house; host or cells: E. coli BL21(D3)LysS
T2 sequence (Q06124 1-593): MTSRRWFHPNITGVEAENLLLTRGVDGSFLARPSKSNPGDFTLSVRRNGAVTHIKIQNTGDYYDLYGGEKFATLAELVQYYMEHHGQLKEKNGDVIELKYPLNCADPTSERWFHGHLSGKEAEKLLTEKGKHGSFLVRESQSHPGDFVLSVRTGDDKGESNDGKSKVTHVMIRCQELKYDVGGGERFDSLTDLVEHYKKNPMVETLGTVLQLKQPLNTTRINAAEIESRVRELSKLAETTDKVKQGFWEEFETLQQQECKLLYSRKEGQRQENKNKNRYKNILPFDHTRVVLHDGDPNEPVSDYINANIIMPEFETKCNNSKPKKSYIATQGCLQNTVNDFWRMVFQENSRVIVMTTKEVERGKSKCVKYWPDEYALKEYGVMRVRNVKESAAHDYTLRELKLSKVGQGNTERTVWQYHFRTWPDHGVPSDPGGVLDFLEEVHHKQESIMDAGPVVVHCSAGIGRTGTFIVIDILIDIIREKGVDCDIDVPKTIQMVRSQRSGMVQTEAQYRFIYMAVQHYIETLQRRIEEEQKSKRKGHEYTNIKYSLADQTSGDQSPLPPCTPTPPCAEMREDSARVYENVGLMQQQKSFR

[7] = molecular target: SHP-2 (UniProt Q06124); assay: PD-1 IP, FLAG (SHP-2) blot; conditions: reference: PD-1 wild type; sites Y248
[8] = molecular target: SHP-2 (UniProt Q06124); assay: PD-1 IP, SHP-2 blot; conditions: reference: PD-1 wild type; sites Y248
[9] = molecular target: PD1LgDM; assay: NanoBiT proximity assay (split luciferase) in HEK-293 cells; conditions: PD1SmDM + PD1LgDM + SHP2WT, read off a plot
[10] = molecular target: PD1LgY223F; assay: as above; conditions: PD1SmY223F + PD1LgY223F + SHP2WT, Fyn (-) kinase inactive; parent: est. 100; read off a plot
[11] = molecular target: PD1LgY248F; assay: as above; conditions: PD1SmY248F + PD1LgY248F + SHP2WT, Fyn (-) kinase inactive; parent: est. 100; read off a plot
[12] = molecular target: SHP-2 1-225 (UniProt Q06124); assay: native PAGE mobility shift; conditions: reference: PD-1cyto-pITIM-pITSM (pY223 + pY248)
[13] = molecular target: SHP-2 1-225 (UniProt Q06124); assay: ITC; conditions: reference: PD-1cyto-pITIM-pITSM (pY223 + pY248); sites Y248

Compound: CC[C@H](C)[C@H](NC(=O)[C@@H](NC(=O)[C@H](C)NC(=O)[C@H](Cc1ccc(OP(=O)(O)O)cc1)NC(=O)[C@H](CCC(=O)O)NC(=O)[C@@H](NC(=O)[C@H](CCC(N)=O)NC(=O)[C@H](CCC(=O)O)NC(=O)[C@@H]1CCCN1C(=O)[C@@H](NC(=O)[C@H](CS)NC(=O)[C@@H]1CCCN1C(=O)[C@@H](NC(=O)[C@@H]1CCCN1C(=O)[C@@H]1CCCN1C(=O)[C@H](CCC(=O)O)NC(=O)[C@@H]1CCCN1C(=O)[C@@H](NC(=O)[C@H](CCCCN)NC(=O)[C@H](CCC(=O)O)NC(=O)[C@H](CCCNC(=N)N)NC(=O)[C@H](Cc1c[nH]c2ccccc12)NC(=O)[C@H](CCC(N)=O)NC(=O)[C@H](Cc1ccccc1)NC(=O)[C@H](CC(=O)O)NC(=O)[C@H](CC(C)C)NC(=O)[C@H](CCC(=O)O)NC(=O)CNC(=O)[C@H](Cc1ccc(O)cc1)NC(=O)[C@H](CC(=O)O)NC(=O)[C@@H](NC(=O)[C@H](CO)NC(=O)[C@H](Cc1ccccc1)NC(=O)[C@@H](NC(=O)[C@@H]1CCCN1C(=O)[C@@H](NC(=O)[C@H](C)NC(=O)[C@@H](N)CO)C(C)C)C(C)C)C(C)C)[C@@H](C)O)C(C)C)C(C)C)[C@@H](C)O)[C@@H](C)O)C(=O)N[C@H](C(=O)N[C@@H](Cc1ccccc1)C(=O)N1CCC[C@H]1C(=O)N[C@@H](CO)C(=O)O)C(C)C [PD-1cyto-ITIM-pITSM]
pKd [1]: 6.11

Compound: CC[C@H](C)[C@H](NC(=O)[C@@H](NC(=O)[C@H](C)NC(=O)[C@H](Cc1ccc(OP(=O)(O)O)cc1)NC(=O)[C@H](CCC(=O)O)NC(=O)[C@@H](NC(=O)[C@H](CCC(N)=O)NC(=O)[C@H](CCC(=O)O)NC(=O)[C@@H]1CCCN1C(=O)[C@@H](NC(=O)[C@H](CS)NC(=O)[C@@H]1CCCN1C(=O)[C@@H](NC(=O)[C@@H]1CCCN1C(=O)[C@@H]1CCCN1C(=O)[C@H](CCC(=O)O)NC(=O)[C@@H]1CCCN1C(=O)[C@@H](NC(=O)[C@H](CCCCN)NC(=O)[C@H](CCC(=O)O)NC(=O)[C@H](CCCNC(=N)N)NC(=O)[C@H](Cc1c[nH]c2ccccc12)NC(=O)[C@H](CCC(N)=O)NC(=O)[C@H](Cc1ccccc1)NC(=O)[C@H](CC(=O)O)NC(=O)[C@H](CC(C)C)NC(=O)[C@H](CCC(=O)O)NC(=O)CNC(=O)[C@H](Cc1ccc(OP(=O)(O)O)cc1)NC(=O)[C@H](CC(=O)O)NC(=O)[C@@H](NC(=O)[C@H](CO)NC(=O)[C@H](Cc1ccccc1)NC(=O)[C@@H](NC(=O)[C@@H]1CCCN1C(=O)[C@@H](NC(=O)[C@H](C)NC(=O)[C@@H](N)CO)C(C)C)C(C)C)C(C)C)[C@@H](C)O)C(C)C)C(C)C)[C@@H](C)O)[C@@H](C)O)C(=O)N[C@H](C(=O)N[C@@H](Cc1ccccc1)C(=O)N1CCC[C@H]1C(=O)N[C@@H](CO)C(=O)O)C(C)C [PD-1cyto-pITIM-pITSM]
pKd [1]: 7.80

Compound: CC1(N)CCN(c2cnc(-c3cccc(Cl)c3Cl)c(N)n2)CC1 [SHP099]
effect on PD-1: PD-1 interaction [2]: dose-dependent inhibition of PD-1: PD-1 interaction

Compound: KEDPSAVPVFSVD[pY]GELDFQWRE [pITIM, monophosphorylated human PD-1 ITIM-pY223 phosphopeptide]
increase in the catalytic activity of SHP-2 compared to negative control pIRSY727 ([5]; DiFMUP substrate, Fig. 5a): did not induce an increase | effect on SHP-2 activation induced by bpITSM (competition) ([5]; bpITSM 0.01 µM with increasing amounts of monophosphorylated peptide, Fig. 5d): only when added at very high molar concentrations (1000x excess of bpITSM) | specific interaction of SHP-2 protein with peptide-coated surface [6]: no specific interaction

Compound: PD-1 (from UniProt Q15116) PD-1 Y248F
binding against the reference [7]: lost | binding against the reference [8]: lost

Compound: PD-1 NanoBiT fusions (PD-1-LgBiT and PD-1-SmBiT) in HEK-293 cells with kinase-active Fyn (from UniProt Q15116) DM
response ([9]; Fyn (+) kinase active, parent: est. 255): 90 RLU

Compound: PD-1 NanoBiT fusions (PD-1-LgBiT and PD-1-SmBiT) in HEK-293 cells with kinase-inactive Fyn (from UniProt Q15116) DM
response ([9]; Fyn (-) kinase inactive, parent: est. 100): 88 RLU

Compound: PD-1 NanoBiT fusions (PD-1-LgBiT and PD-1-SmBiT) in HEK-293 cells with kinase-inactive Fyn (from UniProt Q15116) Y248F
response [11]: 80 RLU

Compound: SAVPVFSVD(pY)GELDFQWREKTPEPPVPCVPEQTEYATIVFPS (SAVPVFSVD[pY]GELDFQWREKTPEPPVPCVPEQTEYATIVFPS) [PD-1cyto-pITIM-ITSM]
peptide: t-SHP-2 interaction by ITC ([1]; same conditions): not detectable

Compound: TE(pY)ATIVFP-Ahx10-QTE(pY)ATIVFPS [bpITSM-Ahx10, bisphosphoryl ITSM peptide with 10-Ahx spacer]
catalytic activity of SHP-2 compared to the negative control pIRSY727 ([5]; 3x lower enzyme concentration (0.5 µg/ml SHP-2-WT), Fig. 5e): caused a higher increase in SHP-2 activation

Compound: VD(pY)GELDFQ-Ahx4- QTE(pY)ATIVFPS [pITIM-pITSM, bisphosphoryl ITIM-ITSM peptide with 4-Ahx spacer]
peptide concentration at which catalytic activity of SHP-2 is increased ([5]; DiFMUP substrate, compared to pIRSY727 and pIRSY1172, Fig. 5a): above 1 µM

Compound: VD(pY)GELDFQ-Ahx4-SVD(pY)GELDFQW [bpITIM, bisphosphoryl ITIM-ITIM peptide with 4-Ahx spacer]
increase in the catalytic activity of SHP-2 compared to negative control pIRSY727 ([5]; DiFMUP substrate, Fig. 5a): did not induce an increase

Next, values leading:

potency in inducing SHP-2 phosphatase activity relative to the bisphosphoryl peptide bpIRS [3]: 3 fold
Compound: Bisphosphoryl ITSM peptide pITSM-Ahx4-pITSM (bpITSM)

stoichiometry N (peptide per t-SHP-2) [4]: 1
Compound: Bisphosphoryl peptide of native sequence of PD-1 cytoplasmic tail (PD-1cyto-pITIM-pITSM)

stoichiometry N (peptide per t-SHP-2) [4]: 2
Compound: Monophosphoryl peptide of native sequence of PD-1 cytoplasmic tail (PD-1cyto-ITIM-pITSM)

response [10]: 90 RLU
Compound: PD-1 NanoBiT fusions (PD-1-LgBiT and PD-1-SmBiT) in HEK-293 cells with kinase-inactive Fyn (from UniProt Q15116) Y223F

binding against the reference ([12]; sites Y223): same
Compound: PD-1 cytoplasmic tail peptide (from UniProt Q15116) PD-1cyto-ITIM-pITSM (pY248 only)

KD [13]: lost; reference 0.0159 | binding against the reference ([12]; sites Y248): lost
Compound: PD-1 cytoplasmic tail peptide (from UniProt Q15116) PD-1cyto-pITIM-ITSM (pY223 only)
